In patent US20240209078A1 (Amgen, published 2024):

B1: CH3 15-E11 CC × I2L × (G4Q)3 × scFc × (G4Q)3 × MS 15-B12 CC × I2L (bispecific antibody)
chain: QVQLVQSGAEVKKPGASVKVSCKASGYTFTNYWMNWVRQAPGQCLEWMGNIAYGVKGTNYNQKFQGRVTMTVDTSSSTAYMELSRLRSDDTAVYYCATRYFYVMDYWGQGTLVTVSSGGGGQGGGGQGGGGQDIQMTQSPSSLSASVGDRVTITCRASQDISNYLNWYQQKPGKVPKLLIYYTSRLHSGVPSRFSGSGSGTDFTLTISSLQPEDVATYYCVQYAQFPLTFGCGTKVEIKSGGGGQEVQLVESGGGLVQPGGSLKLSCAASGFTFNKYAMNWVRQAPGKGMEWVARIRSKYNNYATYYADAVKDRFTISRDDSKNTLYLQMNNLKTEDTAVYYCVRAGNFGSSYISYFAYWGQGTLVTVSSGGGGQGGGGQGGGGQQTVVTQEPSLTVSPGGTVTITCGSSTGAVTSGNYPNWIQKKPGQAPRGLIGGTKFLAPGTPARFSGSLEGGKAALTLSGVQPEDEAEYYCVLYYSNRWVFGSGTKLTVLGGGGQGGGGQGGGGQCPPCPAPELLGGPSVFLFPPKPKDTLMISRTPEVTCVVVDVSHEEPEVKFNWYVDGVEVHNAKTKPCEEQYGSTYRCVSVLTVLHQDWLNGKEYKCKVSNKALPAPIEKTISKAKGQPREPQVYTLPPSREEMTKNQVSLTCLVKGFYPSDIAVEWESNGQPENNYKTTPPVLDSDGSFFLYSKLTVDKSRWQQGNVFSCSVMHEALHNHYTQKSLSLSPGKGGGGQGGGGQGGGGQGGGGQGGGGQGGGGQCPPCPAPELLGGPSVFLFPPKPKDTLMISRTPEVTCVVVDVSHEEPEVKFNWYVDGVEVHNAKTKPCEEQYGSTYRCVSVLTVLHQDWLNGKEYKCKVSNKALPAPIEKTISKAKGQPREPQVYTLPPSREEMTKNQVSLTCLVKGFYPSDIAVEWESNGQPENNYKTTPPVLDSDGSFFLYSKLTVDKSRWQQGNVFSCSVMHEALHNHYTQKSLSLSPGKGGGGQGGGGQGGGGQQVQLQESGPGLVKPSETLSLTCTVSGGSISSSSYFWGWIRQPPGKCLEWIGNIYYSGSSNYNPSLKSRVTISVDTSKNQFSLKLSSVTAADTAVYYCARLPRGDRDAFDIWGQGTMVTVSSGGGGQGGGGQGGGGQDIVMTQSPSSLSASVGDRVTITCRASQGISNYLAWYQQKPGKVPKLLIYAASTLQSGVPSRFSGSGSGTDFTLTISSLQPEDFATYYCQQSYSTPFTFGCGTKVEIKSGGGGQEVQLVESGGGLVQPGGSLKLSCAASGFTFNKYAMNWVRQAPGKGMEWVARIRSKYNNYATYYADAVKDRFTISRDDSKNTLYLQMNNLKTEDTAVYYCVRAGNFGSSYISYFAYWGQGTLVTVSSGGGGQGGGGQGGGGQQTVVTQEPSLTVSPGGTVTITCGSSTGAVTSGNYPNWIQKKPGQAPRGLIGGTKFLAPGTPARFSGSLEGGKAALTLSGVQPEDEAEYYCVLYYSNRWVFGSGTKLTVL
B2: MS 15-B12 CC × 6H10.09 × (G4) × heFc (A) * heFc (B) × (G4) × CH3 15-E11 CC × 6H10.09 (Seq ID 326 + 327) (bispecific antibody)
chain 1: not shown
chain 2: DKTHTCPPCPAPELLGGPSVFLFPPKPKDTLMISRTPEVTCVVVDVSHEDPEVKFNWYVDGVEVHNAKTKPCEEQYGSTYRCVSVLTVLHQDWLNGKEYKCKVSNKALPAPIEKTISKAKGQPREPQVYTLPPSRKEMTKNQVSLTCLVKGFYPSDIAVEWESNGQPENNYKTTPPVLKSDGSFFLYSKLTVDKSRWQQGNVFSCSVMHEALHNHYTQKSLSLSPGKGGGGQVQLVQSGAEVKKPGASVKVSCKASGYTFTNYWMNWVRQAPGQCLEWMGNIAYGVKGTNYNQKFQGRVTMTVDTSSSTAYMELSRLRSDDTAVYYCATRYFYVMDYWGQGTLVTVSSGGGGSGGGGSGGGGSDIQMTQSPSSLSASVGDRVTITCRASQDISNYLNWYQQKPGKVPKLLIYYTSRLHSGVPSRFSGSGSGTDFTLTISSLQPEDVATYYCVQYAQFPLTFGCGTKVEIKSGGGGSEVQLVESGGGLVQPGGSLKLSCAASGFTFNKYAMNWVRQAPGKGMEWVARIRSKYNNYATYYADAVKDRFTISRDDSKNTLYLQMNNLKTEDTAVYYCVRAGNFGSSYISYFAYWGQGTLVTVSSGGGGSGGGGSGGGGSQTVVTQEPSLTVSPGGTVTITCGSSTGAVTSGNYPNWIQKKPGQAPRGLIGGTKFLAPGTPARFSGSLEGGKAALTLSGVQPEDEAEYYCVLYYSNRWVFGSGTKLTVL
B3: MS 15-B12 CC × I2L × (G4Q)3 × scFc × (G4Q)3 × CH3 15-E11 CC × I2L (bispecific antibody)
chain: QVQLQESGPGLVKPSETLSLTCTVSGGSISSSSYFWGWIRQPPGKCLEWIGNIYYSGSSNYNPSLKSRVTISVDTSKNQFSLKLSSVTAADTAVYYCARLPRGDRDAFDIWGQGTMVTVSSGGGGQGGGGQGGGGQDIVMTQSPSSLSASVGDRVTITCRASQGISNYLAWYQQKPGKVPKLLIYAASTLQSGVPSRFSGSGSGTDFTLTISSLQPEDFATYYCQQSYSTPFTFGCGTKVEIKSGGGGQEVQLVESGGGLVQPGGSLKLSCAASGFTFNKYAMNWVRQAPGKGMEWVARIRSKYNNYATYYADAVKDRFTISRDDSKNTLYLQMNNLKTEDTAVYYCVRAGNFGSSYISYFAYWGQGTLVTVSSGGGGQGGGGQGGGGQQTVVTQEPSLTVSPGGTVTITCGSSTGAVTSGNYPNWIQKKPGQAPRGLIGGTKFLAPGTPARFSGSLEGGKAALTLSGVQPEDEAEYYCVLYYSNRWVFGSGTKLTVLGGGGQGGGGQGGGGQCPPCPAPELLGGPSVFLFPPKPKDTLMISRTPEVTCVVVDVSHEEPEVKFNWYVDGVEVHNAKTKPCEEQYGSTYRCVSVLTVLHQDWLNGKEYKCKVSNKALPAPIEKTISKAKGQPREPQVYTLPPSREEMTKNQVSLTCLVKGFYPSDIAVEWESNGQPENNYKTTPPVLDSDGSFFLYSKLTVDKSRWQQGNVFSCSVMHEALHNHYTQKSLSLSPGKGGGGQGGGGQGGGGQGGGGQGGGGQGGGGQCPPCPAPELLGGPSVFLFPPKPKDTLMISRTPEVTCVVVDVSHEEPEVKFNWYVDGVEVHNAKTKPCEEQYGSTYRCVSVLTVLHQDWLNGKEYKCKVSNKALPAPIEKTISKAKGQPREPQVYTLPPSREEMTKNQVSLTCLVKGFYPSDIAVEWESNGQPENNYKTTPPVLDSDGSFFLYSKLTVDKSRWQQGNVFSCSVMHEALHNHYTQKSLSLSPGKGGGGQGGGGQGGGGQQVQLVQSGAEVKKPGASVKVSCKASGYTFTNYWMNWVRQAPGQCLEWMGNIAYGVKGTNYNQKFQGRVTMTVDTSSSTAYMELSRLRSDDTAVYYCATRYFYVMDYWGQGTLVTVSSGGGGQGGGGQGGGGQDIQMTQSPSSLSASVGDRVTITCRASQDISNYLNWYQQKPGKVPKLLIYYTSRLHSGVPSRFSGSGSGTDFTLTISSLQPEDVATYYCVQYAQFPLTFGCGTKVEIKSGGGGQEVQLVESGGGLVQPGGSLKLSCAASGFTFNKYAMNWVRQAPGKGMEWVARIRSKYNNYATYYADAVKDRFTISRDDSKNTLYLQMNNLKTEDTAVYYCVRAGNFGSSYISYFAYWGQGTLVTVSSGGGGQGGGGQGGGGQQTVVTQEPSLTVSPGGTVTITCGSSTGAVTSGNYPNWIQKKPGQAPRGLIGGTKFLAPGTPARFSGSLEGGKAALTLSGVQPEDEAEYYCVLYYSNRWVFGSGTKLTVL

Columns and labels:
Experiment in all cases: cell-based or functional assay
[1] = target: T1, human CDH3 (Cadherin-3, P-Cadherin) (human, UniProt P22223 108-829)
human MSLN (mesothelin) [2] = target: T2, human MSLN (mesothelin) (human, UniProt Q13421 37-598)
[3] = target: T1, human CDH3 (Cadherin-3, P-Cadherin); remark: listed apart in the source
human MSLN (mesothelin) [4] = target: T2, human MSLN (mesothelin); remark: listed apart in the source
human CDH3 = human CDH3 (human, UniProt P22223 108-829)
human MSLN = human MSLN (human, UniProt Q13421 37-598)

Fold selectivity gap, GSU KO MSLN against GSU wt (human CDH3) [fold] | Fold selectivity gap, GSU KO CDH3 against GSU wt (human MSLN) [fold] | Binder | cytotoxicity EC50, GSU KO MSLN cells [1] [nM] | cytotoxicity EC50, GSU KO CDH3 cells (human MSLN (mesothelin) [2]) [nM] | cytotoxicity EC50, HCT 116 KO MSLN cells [3] [nM] | cytotoxicity EC50, HCT 116 KO CDH3 cells (human MSLN (mesothelin) [4]) [nM] | EC50 GSU KO MSLN (cytotoxicity; cells CDH3+, MSLN-) (human CDH3) [nM] | EC50 GSU wt (cytotoxicity; cells CDH3+, MSLN+) (human CDH3) [nM] | EC50 GSU KO CDH3 (cytotoxicity; cells CDH3-, MSLN+) (human MSLN) [nM] | EC50 GSU wt (cytotoxicity; cells CDH3+, MSLN+) (human MSLN) [nM]
 |  | B1 | 3.33 | 0.171 | 0.0085 | 0.0226 |  |  |  | 
165 | 121 | B2 |  |  |  |  | 0.533 | 0.0032 | 0.391 | 0.0032
 |  | B3 | 1.73 | 2.9 | 0.0035 | 0.0292 |  |  |  | 
